B1: Glia maturation factor gamma (Mus musculus), Q9ERL7 (parent)
chain: MSDSLVVCEVDPELKETLRKFRFRKETNNAAIIMKVDKDRQMVVLEDELQNISPEELKLELPERQPRFVVYSYKYVHDDGRVSYPLCFIFSSPVGCKPEQQMMYAGSKNRLVQTAELTKVFEIRTTDDLTETWLKEKLAFFR

Variants of: B1
Conditions: with arpc2_bovin ARPC2, Q3MHR7

| effect of a mutation on the interaction | Variant |
| --- | --- |
| decreasing interaction strength | D128K |
| decreasing interaction strength | R124E |
| decreasing interaction strength | M102A |

Source: IntAct's records for PubMed 23893131
